In article PMC8254758 (Structure (London, England : 1993), 2021):

How the values were obtained:
[1] = target: rat NLGN2(+A) extracellular domain (Val43-His612, with splice insert SSA) (rat) (UniProt Q62888); test: SPR
[2] = target: full-length SPARC (SPARC_C1) and the SPARC FS-EC domains (SPARC_C2); test: fluorescence polarisation
[3] = target: T1, rat NLGN2(+A) extracellular domain (Val43-His612, with splice insert SSA) (rat, UniProt Q62888-1 43-612); test: SPR
[4] = target: T1, rat NLGN2(+A) extracellular domain …; test: fluorescence polarisation

T1 sequence (Q62888 43-612): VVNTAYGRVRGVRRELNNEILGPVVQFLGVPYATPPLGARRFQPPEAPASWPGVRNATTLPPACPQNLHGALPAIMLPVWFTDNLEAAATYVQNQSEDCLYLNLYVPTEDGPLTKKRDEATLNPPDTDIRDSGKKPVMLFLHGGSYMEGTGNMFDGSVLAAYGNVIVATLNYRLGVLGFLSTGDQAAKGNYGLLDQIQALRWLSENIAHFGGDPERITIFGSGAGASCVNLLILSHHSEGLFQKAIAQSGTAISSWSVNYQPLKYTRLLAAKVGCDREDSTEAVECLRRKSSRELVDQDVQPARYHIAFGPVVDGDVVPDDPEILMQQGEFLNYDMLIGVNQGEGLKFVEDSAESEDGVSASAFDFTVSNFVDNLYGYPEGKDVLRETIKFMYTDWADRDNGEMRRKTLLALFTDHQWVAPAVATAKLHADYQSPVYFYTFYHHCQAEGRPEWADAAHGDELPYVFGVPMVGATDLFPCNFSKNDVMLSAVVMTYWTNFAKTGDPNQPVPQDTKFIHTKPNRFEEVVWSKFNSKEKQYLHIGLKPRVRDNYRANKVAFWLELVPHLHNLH
Chain of rat NLGN2(+A) extracellular domain (Val43-His612, with splice insert SSA) (rat) (Q62888 43-612): as above

Molecule “bovine neurexin 1α L1L6 (M1-S1339, without splice inserts) (domain or fragment)” has a Kd [1] of 3.8 nM.

In the case of “rat NLGN2(+A) extracellular domain (Val43-His612, with splice insert SSA) (from UniProt Q62888-1 43-612) (domain or fragment)”, the Kd [2] is reported as 37 to 96 nM.

B1: hevin_C4 (L302-F664) (domain or fragment, human, UniProt Q14515 302-664, looked up)
chain: LEAISNHKETEEKTVSEALLMEPTDDGNTTPRNHGVDDDGDDDGDDGGTDGPRHSASDDYFIPSQAFLEAERAQSIAYHLKIEEQREKVHENENIGTTEPGEHQEAKKAENSSNEEETSSEGNMRVHAVDSCMSFQCKRGHICKADQQGKPHCVCQDPVTCPPTKPLDQVCGTDNQTYASSCHLFATKCRLEGTKKGHQLQLDYFGACKSIPTCTDFEVIQFPLRMRDWLKNILMQLYEANSEHAGYLNEKQRNKVKKIYLDEKRLLAGDHPIDLLLRDFKKNYHMYVYPVHWQFSELDQHPMDRVLTHSELAPLRASLVPMEHCITRFFEECDPNKDKHITLKEWGHCFGIKEEDIDENLLF
B1: binds [3].

B2: human MDGA1 Ig1-Ig2 (MDGA1_C8, Y22-T237) (domain or fragment, UniProt Q8NFP4-1 22-237, looked up)
chain: YAPAQAQIVHAGQACVVKEDNISERVYTIREGDTLMLQCLVTGHPRPQVRWTKTAGSASDKFQETSVFNETLRIERIARTQGGRYYCKAENGVGVPAIKSIRVDVQYLDEPMLTVHQTVSDVRGNFYQEKTVFLRCTVNSNPPARFIWKRGSDTLSHSQDNGVDIYEPLYTQGETKVLKLKNLRPQDYASYTCQVSVRNVCGIPDKAITFRLTNTT
B2: binds [4].

B3: MDGA1_C8 Mut4 (MDGA1 Ig1-Ig2 R105A, Y107A, R123A, F154A, R156A, Y187A) (domain or fragment, human, UniProt Q8NFP4-1 22-237, looked up)
chain: YAPAQAQIVHAGQACVVKEDNISERVYTIREGDTLMLQCLVTGHPRPQVRWTKTAGSASDKFQETSVFNETLRIERIARTQGGAYACKAENGVGVPAIKSIAVDVQYLDEPMLTVHQTVSDVRGNFYQEKTVALACTVNSNPPARFIWKRGSDTLSHSQDNGVDIAEPLYTQGETKVLKLKNLRPQDYASYTCQVSVRNVCGIPDKAITFRLTNTT
B3: binds [4].
